Experimental findings from patent US10881612B2, “Cationic liposomes for cancer immunotherapy” (The Methodist Hospital, priority 2015, dated 2021) are described below.

In assay [1] the test system is 4T1 tumors. The experiment in a line: In vivo tumor cytotoxicity (H&E and TUNEL staining) after intratumoral injection. The note with it: 24 hours after intratumoral injection.
Procedure: (§1) The cytotoxicity of cationic liposomes to 4T1 breast cancer cells was evaluated by flow cytometry using propodium iodide (PI). Using a 24 well plate format, cells were treated with 4 μg control or MPL liposomes, or free MPL (250 ng) for 24 hours. Cells were released using trypsin and treated with PI according to manufacturer's protocol (Invitrogen). Samples were analyzed using a LSR II™ Flow Cytometer (BD Biosciences, Mountain View, Calif., USA) equipped with […] ™ software (2007). In vivo tumor cytotoxicity of cationic liposomes was evaluated in BALB/c mice bearing 200 mm^3 4T1 tumors 24 hours following intratumoral injection of liposomes (50 μL; 1 mg lipid). […]
(§2) The cytotoxicity of cationic liposomes to 4T1 breast cancer cells was evaluated by flow cytometry using propidium iodide (PI). […] Samples were analyzed using a LSR II® Flow Cytometer (BD Biosciences. Mountain View, Calif., USA) equipped with […] ™ software (2007). In vivo tumor cytotoxicity of cationic liposomes was evaluated in BALB/c mice bearing 200 mm^3 4T1 tumors 24 hr following intratumoral injection of liposomes (50 μL; 1 mg lipid). Excised tumors were embedded in paraffin, sectioned, and stained with hematoxylin/eosin, or analyzed for apoptosis using the DeadEnd® Fluorometric TUNEL System (Promega Corp., Madison. Wis., USA).
Assay [2] relates to 4T1 orthotopic breast tumors. The experiment in a line: Therapeutic efficacy study, intratumoral injection. Type of assay: in vivo, BALB/c mice. The note with it: intratumoral injection once a week for two weeks. Here is the method:
Breast cancer tumors were established in BALB/c mice by intramammary injection of 1×10^5 4T1-luciferase cells. When tumors reached a median size of 100-200 mm^3, mice were administered intratumoral injections as follows: PBS control, Free MPL (6.25 μg), control liposomes (50 μL; 1 mg lipid); MPL liposomes (50 μL), and IL-12 (5 μg) with/without MPL liposomes. Tumor growth was monitored by caliper measurements three times per week and by luciferase expression measured weekly using the Xenogen IVIS-200 System (Perkin Elmer Inc., Waltham, Mass., USA) following intra-peritoneal injection of 75 mg/kg RediJect D-Luciferin (Perkin Elmer Inc.), 24-26 days after initiation of tumor growth, mice were sacrificed, blood was collected by retro-orbital bleeding, and tumor and spleen were collected for immunohistochemical, weight, and size analysis. Dual tumors were grown in naïve mice using the same experimental conditions with intratumoral injection of particles limited to a single tumor.
Breast cancer tumors were established in BALB/c mice by intramammary injection of 1×10^5 4T1-luciferase cells. When tumors reached a median size of 100-200 mm^3, mice were administered intratumoral injections as follows: PBS control. Free MPL (6.25 μg), control liposomes (50 μL; 1 mg lipid): MPL liposomes (50 μL), and IL-12 (5 μg) with/without MPL liposomes. […]

The subject of a further assay is 4T1 breast cancer cells. The experiment in a line: Cytotoxicity of cationic liposomes by propidium iodide flow cytometry. Type of assay: cell-based, mouse. The note with it: 4T1 cells, 4 μg/mL liposomes or free MPL (250 ng), 24 hours, n=3. A general note: A flow cytometer gives signals particle by particle.
Assay [3] concerns 4T1 tumors. The experiment in a line: Immunofluorescence of tumor sections (cellular phenotype of tumor microenvironment). The class given is in vivo, BALB/c mice. The protocol: Tissues were quick frozen in OCT (Tissue-Tek) and stored at −80° C. Tissue sections (10 μm) were fixed with ice-cold acetone for 15 minutes at −20° C. and washed three times with IX PBS using trays followed by blocking with 5% fetal bovine serum in PBS. Fluorescence-labeled antibodies [e-flour 615 CD8 (clone 53-6.7; 1:50), e-flour 570 Ki-67 (clone solA15: 1:100; eBioscience, San Diego, Calif., USA); FITC F4/80 (MCA497A488; 1:100), Alexa Fluor 647 CD204 (MCA1322; 1:100, AbD Serotec, Raleigh N.C., USA); and 33D1 (1:100, BD Biosciences, San Jose. Calif.: 1:500 secondary anti-rat IgG Alexa Fluor® 546; Invitrogen) and iNOS (6/iNOS/NOS; 1:100 BD Biosciences, San Jose, Calif., USA; 1:500 anti-rabbit IgG-TRITC, Jackson Immunoresearch Labs, Inc. West Grove, Pa., USA)] were incubated with tissues overnight at 4° C. in the presence of 5% FBS. Slides were then washed three times with PBS and mounted with ProLong® Gold AntiFade with DAPI (Invitrogen). Images were taken using an A1 Nikon confocal microscope and the percent positive cells were determined by manual counting of four arbitrary regions in random samples.
Tissues were quick frozen in OCT (Tissue-Tek) and stored at −80° C. Tissue sections (10 μm) were fixed with ice-cold acetone for 15 min at −20° C. and washed three times with 1×PBS using trays followed by blocking with 5% fetal bovine serum in PBS. Fluorescently-labeled antibodies [eFluor® 615 CD8 (clone 53-6.7; 1:50), eFluor® 570 Ki-67 (clone solA15; 1:100; eBioscience, San Diego, Calif. USA); FITC F4/80 (MCA497A488; 1:100), Alexa-Fluor® 647 CD204 (MCA1322; 1:100, AbD Serotec, Raleigh N.C. USA); and 33D1 (1:100, BD Biosciences, San Jose, Calif.; 1:500 secondary anti-rat IgG Alexa-Fluor® 546: Invitrogen) and iNOS (6/iNOS/NOS; 1:100 BD Biosciences. San Jose. Calif., USA; 1:500 anti-rabbit IgG-TRITC. Jackson ImmunoResearch Laboratories. Inc., West Grove, Pa. USA)] were incubated with tissues overnight at 4° C. in the presence of 5% FBS. Slides were then washed three times with PBS and mounted with ProLong® Gold AntiFade® with DAPI (Invitrogen). Images were obtained using a confocal microscope (A1 Nikon), and the percent-positive cells were determined by manual counting of four arbitrary regions in random samples.

The next assay relates to serum cytokines. The experiment in a line: Multiplex bead ELISA of serum cytokines. The class given is in vivo, BALB/c mice. The note with it: 5 hours after intratumoral injection. The protocol:
Serum cytokines were analyzed 5 hours after intratumoral injection of liposomes using a mouse cytokine magnetic 10-plex panel kit (Invitrogen, Carlsbad, Calif., USA) for the Luminex® platform. Following retro-orbital eye bleed, plasma was collected by centrifugation at 1500 g for 10 minutes at 4° C. and stored at −80° C. Plates were prepared using 25 μL/well of the antibody-bound head. After 2 washes, 50 μL serum and 50 μL assay diluent (or 100 μL standard) were added and plates were incubated at room temperature for 2 hours on an orbital shaker. After two washes, 100 μL of biotinylated detector antibody was added to the heads and they were incubated for an additional hour, followed by two more washes and the addition of 100 μL streptavidin-RPE for 30 minutes. After a final two washes, beads were suspended in 125 μL wash solution and inserted into the XY platform of a Luminex MAGPIX Instrument (EMD Millipore, Billerica, Mass. USA). The assay protocol was designed using xPONENT software and samples were run at 100 events/bead region.
Multiplex Bead ELISA. Serum cytokines were analyzed 5 hr after intratumoral injection of liposomes using a mouse cytokine magnetic 10-plex panel kit (Invitrogen, Carlsbad, Calif. USA) for the Luminex® platform. Following retro-orbital eye bleed, plasma was collected by centrifugation at 1500×g for 10 min at 4° C. and stored at −80° C. […]

In assay [4] the test system is 4T1 tumor. The experiment in a line: Immune phenotyping of tumor immunocytes by flow. Type of assay: in vivo, murine. The note with it: 24 hours after treatment, preliminary.
The test system of assay [5] is 4T1 tumor. The experiment in a line: V-sense 19F MRI / confocal tracking of macrophage infiltration into tumor. The note with it: after IL-12 intratumoral injection, tumors extracted 24 hours post imaging. Type of assay: in vivo, mice. The source says:
Macrophage accumulation has been documented to contribute to cancer progression through suppression of the immune response and promotion of tumor vascularization (Mielgo et al., 2013). V-sense is a perfluorocarbon emulsion that is taken up by monocytes and macrophages, allowing for in-vivo detection through ^19F MRI. Ahrens, et al. (2011) successfully quantified V-sense in inflamed tissues of the central nervous system in an ex-vivo model of allergic encephalomyelitis, which they correlated with immunohistochemistry to confirm co-localization of V-sense emulsion droplets and macrophages. Hitchens et al. (2011) detected perfluorocarbon-labeled macrophages in a model of cardiac allograft rejection, which was confirmed via immunohistochemistry and histology. V-sense was used to study the impact of IL-12 on macrophage infiltration into the tumor (FIG. 8). […] Confocal images in FIG. 8B show V-sense (red) uptake by Celltracker™ Green RAW cells.

Procedure for 4T1 breast cancer cells: as §1, §2

For monophosphoryl lipid A [free MPL], the “cell death in tumor (TUNEL staining)” value in the assay on 4T1 tumors [1] was “Minimal cell death”. In addition, the “tumor growth (caliper measurements)” value in assay [2] is listed as “did not slow tumor growth”. Further, the “cell death (propidium iodide uptake)” value in the assay on 4T1 breast cancer cells is reported as 16%.

B1: IL-12: Recombinant mouse IL-12 purchased from R&D Systems (protein, UniProt P43431 23-215; P43432 23-335, looked up)
Interleukin-12 subunit alpha: RVIPVSGPARCLSQSRNLLKTTDDMVKTAREKLKHYSCTAEDIDHEDITRDQTSTLKTCLPLELHKNESCLATRETSSTTRGSCLPPQKTSLMMTLCLGSIYEDLKMYQTEFQAINAALQNHNHQQIILDKGMLVAIDELMQSLNHNGETLRQKPPVGEADPYRVKMKLCILLHAFSTRVVTINRVMGYLSSA
Interleukin-12 subunit beta: MWELEKDVYVVEVDWTPDAPGETVNLTCDTPEEDDITWTSDQRHGVIGSGKTLTITVKEFLDAGQYTCHKGGETLSHSHLLLHKKENGIWSTEILKNFKNKTFLKCEAPNYSGRFTCSWLVQRNMDLKFNIKSSSSSPDSRAVTCGMASLSAEKVTLDQRDYEKYSVSCQEDVTCPTAEETLPIELALEARQQNKYENYSTSFFIRDIIKPDPPKNLQMKPLKNSQVEVSWEYPDSWSTPHSYFSLKFFVRIQRKKEKMKETEEGCNQKGAFLVEKTSTEVQCKGGNVCVQAQDRYYNSSCSKWACVPCRVRS
Regarding B1, in the assay on 4T1 tumors [3] (mouse, in vivo), the “CD8+ (cytolytic) T cells in the tumor (change)” value was “increased”, the “F4/80+ macrophages in the tumor (change)” value is given as “increased”, the “iNOS in tumors (change)” value is “enhancing production” and the “increase in iNOS (nitric oxide synthase) expression in the tumor above basal levels” value is on record as 3 fold. Moreover, the “33D1+ dendritic cells in the tumor (change)” value in the assay with 4T1 tumors [3] (tumor sections, immunofluorescence) is reported as “increased”. Also, the “serum IFN-γ” value with serum cytokines is recorded as “increase”. In the assay on 4T1 tumor [4], the “CD4+ T cells in the tumor” value is given as “increases”, the “CD8+ T cells in the tumor” value was “increases” and the “MDSC in the tumor” value was “decreases”. The “V-sense signal distribution in tumor (macrophage infiltration)” value in the assay on 4T1 tumor [5] is “strong penetration of V-sense signal into tumor tissue”.
